# Experimental data published in US20240209076A1 (KODIAK SCIENCES, published 2024).
# Residue numbers refer to the chain shown, from its start. In names and notes the source's numbering stands.
# B1: Anti-IL-6 antibody, heavy chain S35H, G66D, L100D / light chain WT (antibody, IgG1, V domains shown)
# VH: EVQLVESGGGLVQPGGSLRLSCAASGFTFSPFAMHWVRQAPGKGLEWVAKISPGGSWTYYSDTVTDRFTFSLDTSKSTAYLQMNSLRAEDTAVYYCARQDWGYYALDIWGQGTLVTVSS
# VL: DIQLTQSPSSLSASVGDRVTITCSASISVSYMYWYQQKPGKAPKLLIYDMSNLASGVPSRFSGSGSGTDFTLTISSLQPEDFATYYCMQWSGYPYTFGQGTKVEIK
# notes: IgG1; variable domains only
# B2: Anti-IL-6 antibody, heavy chain S35H, G66D, L100H / light chain WT (antibody, IgG1, V domains shown)
# VH: B1 VH with D100H
# VL: B1 VL
# notes: IgG1; variable domains only
# B3: Anti-IL-6 antibody, heavy chain S35H, G66D, L100I / light chain M32L, M50D, N52S, M88Q (antibody, IgG1, V domains shown)
# VH: B1 VH with D100I
# VL: B1 VL with M32L, M50D, N52S, M88Q
# notes: IgG1; variable domains only; VL is variant III
# B4: Anti-IL-6 antibody, heavy chain S35H, G66D, L100G / light chain WT (antibody, IgG1, V domains shown)
# VH: B1 VH with D100G
# VL: B1 VL
# notes: IgG1; variable domains only
# B5: Anti-IL-6 antibody, heavy chain S35H, G66D, Q99A / light chain M32L, M50D, N52S, M88Q (antibody, IgG1, V domains shown)
# VH: B1 VH with Q99A, D100L
# VL: B1 VL with M32L, M50D, N52S, M88Q
# notes: as for B3
# B6: Anti-IL-6 antibody, heavy chain S35H, G66D, L100Y / light chain WT (antibody, IgG1, V domains shown)
# VH: B1 VH with D100Y
# VL: B1 VL
# notes: IgG1; variable domains only
# B7: Anti-IL-6 antibody, heavy chain S35H, G66D, L100F / light chain WT (antibody, IgG1, V domains shown)
# VH: B1 VH with D100F
# VL: B1 VL
# notes: IgG1; variable domains only
# B8: Anti-IL-6 antibody, heavy chain S35H, G66D, L100V / light chain WT (antibody, IgG1, V domains shown)
# VH: B1 VH with D100V
# VL: B1 VL
# notes: IgG1; variable domains only
# B9: Anti-IL-6 antibody, heavy chain S35H, G66D, L100A / light chain WT (antibody, IgG1, V domains shown)
# VH: B1 VH with D100A
# VL: B1 VL
# notes: IgG1; variable domains only
# B10: Anti-IL-6 antibody, heavy chain S35H, G66D, L100P / light chain M32L, M50D, N52S, M88Q (antibody, IgG1, V domains shown)
# VH: B1 VH with D100P
# VL: B1 VL with M32L, M50D, N52S, M88Q
# notes: as for B3
# B11: Anti-IL-6 antibody, heavy chain S35H, G66D, L100W / light chain M32L, M50D, N52S, M88Q (antibody, IgG1, V domains shown)
# VH: B1 VH with D100W
# VL: B1 VL with M32L, M50D, N52S, M88Q
# notes: as for B3
# B12: Anti-IL-6 antibody, heavy chain S35H, G66D, L100R / light chain M32L, M50D, N52S, M88Q (antibody, IgG1, V domains shown)
# VH: B1 VH with D100R
# VL: B1 VL with M32L, M50D, N52S, M88Q
# notes: as for B3
# B13: Anti-IL-6 antibody, heavy chain S35H, G66D, L100D / light chain M32L, M50D, N52S, M88Q (antibody, IgG1, V domains shown)
# VH: B1 VH
# VL: B1 VL with M32L, M50D, N52S, M88Q
# notes: as for B3
# B14: Anti-IL-6 antibody, heavy chain S35H, G66D, L100E / light chain WT (antibody, IgG1, V domains shown)
# VH: B1 VH with D100E
# VL: B1 VL
# notes: IgG1; variable domains only
# B15: Anti-IL-6 antibody, heavy chain G66D / light chain M32L, M50D, N52S, M88Q (antibody, IgG1, V domains shown)
# VH: B1 VH with H35S, D100L
# VL: B1 VL with M32L, M50D, N52S, M88Q
# notes: as for B3
# B16: Anti-IL-6 antibody, heavy chain S35H, G66D, L100I / light chain WT (antibody, IgG1, V domains shown)
# VH: B1 VH with D100I
# VL: B1 VL
# notes: IgG1; variable domains only
# B17: Anti-IL-6 antibody, heavy chain S35H, G66D, L100H / light chain M32L, M50D, N52S, M88Q (antibody, IgG1, V domains shown)
# VH: B1 VH with D100H
# VL: B1 VL with M32L, M50D, N52S, M88Q
# notes: as for B3
# B18: Anti-IL-6 antibody, heavy chain S35H, G66D, L100Y / light chain M32L, M50D, N52S, M88Q (antibody, IgG1, V domains shown)
# VH: B1 VH with D100Y
# VL: B1 VL with M32L, M50D, N52S, M88Q
# notes: as for B3
# Target: human IL-6 (human, UniProt P05231 30-212)
# Sequence (P05231 30-212 limits assumed): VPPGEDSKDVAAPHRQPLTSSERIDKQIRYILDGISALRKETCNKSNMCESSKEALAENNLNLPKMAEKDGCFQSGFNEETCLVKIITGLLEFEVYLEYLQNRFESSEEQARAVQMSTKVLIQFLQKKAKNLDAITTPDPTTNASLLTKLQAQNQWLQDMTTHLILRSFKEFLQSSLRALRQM
# Test: SPR Biacore, supernatant, Protein A capture, 37 C
# Protocol: Those four positions were selected based on their tolerance for mutations as observed in bacterial and mammalian screens. […] These cultures were centrifuged and supernatants containing secreted antibodies were harvested and diluted in HBS-EP+ running buffer (1:20 ratio).
# Antibodies were captured on a Protein A chip (GE) by injecting 1:20 cell supernatant dilutions at 10 μL/min for 60 seconds. […] The sensor chip was regenerated by a 60 seconds injection of 10 mM Glycine pH 1.7 at the flow rate of 50 μL/min. […] For this setup, 1 μg/mL of purified antibody was injected over a Protein A chip at 10 μL/min for 25 seconds. […] The sensor chip was regenerated by a 60 seconds injection of 10 mM Glycine pH 1.7 at flow rate of 50 μL/min. Data analysis for supernatant and purified samples were performed using BIAevaluation software (GE). All sensorgrams were double reference subtracted and fit using a 1:1 Langmuir binding model.
Binder,Kd [nM],koff [s⁻¹],kon [M⁻¹ s⁻¹]
B1,0.447,0.000799,1.79e+06
B2,0.688,0.000498,723000
B3,0.372,0.000712,1.91e+06
B4,0.3,0.00096,3.2e+06
B5,3.07,0.0045,1.47e+06
B6,0.638,0.000642,1.01e+06
B7,0.244,0.000612,2.51e+06
B8,0.244,0.000579,2.37e+06
B9,0.184,0.000833,4.52e+06
B10,4.66,0.00354,759000
B11,1.98,0.00124,625000
B12,0.878,0.00116,1.32e+06
B13,0.35,0.00202,5.77e+06
B14,0.766,0.000869,1.13e+06
B15,0.393,0.000654,1.66e+06
B16,0.692,0.000644,931000
B17,0.83,0.00129,1.55e+06
B18,0.934,0.000801,858000
